Experimental data: the supplement of paper PMC10065799, “High-throughput profiling of sequence recognition by tyrosine kinases and SH2 domains using bacterial peptide display” (eLife, 2023)

Tests used:
[1] = target: FGFR3 (UniProt P22607); experiment: phosphorylation enrichment, bacterial display (enrichment ratio); higher = better substrate or ligand; peptides without Tyr show the background
[2] = test system: c-Src; experiment: as above
[3] = target: Jak2 (UniProt O60674); experiment: as above
[4] = target: EPHB1 (UniProt P54762); experiment: as above
[5] = test system: AncSZ; experiment: as above
[6] = target: Fyn (UniProt P06241); experiment: as above
[7] = target: Hck (UniProt P08631); experiment: as above
[8] = target: MERTK (UniProt Q12866); experiment: as above
[9] = target: FGFR1 (UniProt P11362); experiment: as above
[10] = test system: Fer (mouse); experiment: as above
[11] = target: EPHB2 (UniProt P29323); experiment: as above
[12] = test system: c-Abl (mouse); experiment: as above
[13] = target: Fes (UniProt P07332); experiment: as above
[14] = target: c-Src SH2; experiment: SH2 binding enrichment of the phosphorylated peptide, bacterial display (enrichment ratio); higher = better substrate or ligand; peptides without Tyr show the background
[15] = target: SHP2-C SH2; experiment: as above
[16] = target: Grb2 SH2 (UniProt P62993); experiment: as above
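Throughout, for SH2 binding enrichment of the phosphorylated peptide, bacterial display: peptide library displayed on the E. coli surface as eCPX fusions, selected cells deep-sequenced, score is each peptide's frequency after selection divided by its frequency in the input.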
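Throughout, for phosphorylation enrichment, bacterial display: 11-residue human phosphosite peptides and single-mutation variants displayed on the E. coli surface, counted by deep sequencing, each peptide's frequency after selection divided by its frequency in the unselected input library; frequency after pTyr selection over input frequency; kinase dosed for 20-30% of maximal phosphorylation in three min.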

Chain of Grb2 SH2 (P62993 whole entry, looked up, the tested form may be a part): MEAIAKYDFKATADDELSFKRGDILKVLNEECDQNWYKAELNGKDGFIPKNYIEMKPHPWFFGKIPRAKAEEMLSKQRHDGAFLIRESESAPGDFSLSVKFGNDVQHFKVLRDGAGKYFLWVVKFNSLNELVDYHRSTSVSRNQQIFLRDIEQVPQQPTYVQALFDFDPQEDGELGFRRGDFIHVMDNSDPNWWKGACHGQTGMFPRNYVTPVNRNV
Chain of EPHB1 (P54762 whole entry, looked up): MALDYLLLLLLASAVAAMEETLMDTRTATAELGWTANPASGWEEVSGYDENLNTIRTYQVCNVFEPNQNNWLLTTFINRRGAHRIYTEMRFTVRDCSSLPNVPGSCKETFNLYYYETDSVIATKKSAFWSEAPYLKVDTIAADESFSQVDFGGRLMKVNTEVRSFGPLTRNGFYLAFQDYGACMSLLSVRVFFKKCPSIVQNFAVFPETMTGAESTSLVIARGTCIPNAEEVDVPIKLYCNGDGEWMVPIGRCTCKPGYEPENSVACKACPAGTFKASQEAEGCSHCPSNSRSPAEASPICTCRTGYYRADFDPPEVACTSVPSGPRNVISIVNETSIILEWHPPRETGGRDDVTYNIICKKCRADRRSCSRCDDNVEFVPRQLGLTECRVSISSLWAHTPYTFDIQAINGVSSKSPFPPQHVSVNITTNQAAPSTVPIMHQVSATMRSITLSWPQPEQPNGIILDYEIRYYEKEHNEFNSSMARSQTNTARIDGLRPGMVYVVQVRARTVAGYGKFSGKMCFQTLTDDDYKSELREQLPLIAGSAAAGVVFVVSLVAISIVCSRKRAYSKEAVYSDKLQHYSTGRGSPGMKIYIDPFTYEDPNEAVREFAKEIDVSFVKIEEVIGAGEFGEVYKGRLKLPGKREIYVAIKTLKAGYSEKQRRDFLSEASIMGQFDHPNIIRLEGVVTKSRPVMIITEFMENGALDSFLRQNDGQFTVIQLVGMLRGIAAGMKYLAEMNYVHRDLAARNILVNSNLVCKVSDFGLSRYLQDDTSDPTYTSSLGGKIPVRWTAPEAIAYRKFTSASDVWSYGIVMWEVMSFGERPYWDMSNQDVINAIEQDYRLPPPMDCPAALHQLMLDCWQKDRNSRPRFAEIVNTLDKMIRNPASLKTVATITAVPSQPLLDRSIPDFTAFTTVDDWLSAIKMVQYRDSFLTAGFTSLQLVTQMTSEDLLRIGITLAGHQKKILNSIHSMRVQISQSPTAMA
Chain of Jak2 (O60674 whole entry, looked up): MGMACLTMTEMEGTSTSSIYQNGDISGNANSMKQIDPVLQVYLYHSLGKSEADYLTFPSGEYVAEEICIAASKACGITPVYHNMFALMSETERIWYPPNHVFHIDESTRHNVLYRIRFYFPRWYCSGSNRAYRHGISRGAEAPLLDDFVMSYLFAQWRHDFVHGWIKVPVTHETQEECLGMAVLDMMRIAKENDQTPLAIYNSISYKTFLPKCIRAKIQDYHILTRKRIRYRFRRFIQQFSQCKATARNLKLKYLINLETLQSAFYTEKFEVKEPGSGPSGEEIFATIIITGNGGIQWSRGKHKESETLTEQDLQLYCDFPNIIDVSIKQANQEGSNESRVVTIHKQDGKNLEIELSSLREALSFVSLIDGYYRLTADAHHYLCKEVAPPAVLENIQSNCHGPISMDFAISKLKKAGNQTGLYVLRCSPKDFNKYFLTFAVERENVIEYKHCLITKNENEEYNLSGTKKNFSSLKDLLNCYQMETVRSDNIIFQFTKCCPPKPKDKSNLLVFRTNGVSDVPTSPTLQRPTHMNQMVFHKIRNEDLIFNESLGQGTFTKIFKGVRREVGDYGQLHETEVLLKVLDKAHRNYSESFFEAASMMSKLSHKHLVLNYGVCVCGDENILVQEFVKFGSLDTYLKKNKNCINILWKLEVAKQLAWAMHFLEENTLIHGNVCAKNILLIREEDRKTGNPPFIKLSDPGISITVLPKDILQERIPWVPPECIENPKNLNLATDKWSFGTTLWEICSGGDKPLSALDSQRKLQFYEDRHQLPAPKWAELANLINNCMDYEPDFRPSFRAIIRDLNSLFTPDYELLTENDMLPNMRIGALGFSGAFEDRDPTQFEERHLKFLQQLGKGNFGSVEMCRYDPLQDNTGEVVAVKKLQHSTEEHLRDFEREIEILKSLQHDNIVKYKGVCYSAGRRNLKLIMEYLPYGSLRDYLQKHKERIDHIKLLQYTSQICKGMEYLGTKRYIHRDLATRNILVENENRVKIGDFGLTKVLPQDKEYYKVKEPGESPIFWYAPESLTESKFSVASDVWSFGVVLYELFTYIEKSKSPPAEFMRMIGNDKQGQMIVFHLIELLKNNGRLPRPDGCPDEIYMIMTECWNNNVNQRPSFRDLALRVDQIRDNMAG
Chain of Hck (P08631 whole entry, looked up): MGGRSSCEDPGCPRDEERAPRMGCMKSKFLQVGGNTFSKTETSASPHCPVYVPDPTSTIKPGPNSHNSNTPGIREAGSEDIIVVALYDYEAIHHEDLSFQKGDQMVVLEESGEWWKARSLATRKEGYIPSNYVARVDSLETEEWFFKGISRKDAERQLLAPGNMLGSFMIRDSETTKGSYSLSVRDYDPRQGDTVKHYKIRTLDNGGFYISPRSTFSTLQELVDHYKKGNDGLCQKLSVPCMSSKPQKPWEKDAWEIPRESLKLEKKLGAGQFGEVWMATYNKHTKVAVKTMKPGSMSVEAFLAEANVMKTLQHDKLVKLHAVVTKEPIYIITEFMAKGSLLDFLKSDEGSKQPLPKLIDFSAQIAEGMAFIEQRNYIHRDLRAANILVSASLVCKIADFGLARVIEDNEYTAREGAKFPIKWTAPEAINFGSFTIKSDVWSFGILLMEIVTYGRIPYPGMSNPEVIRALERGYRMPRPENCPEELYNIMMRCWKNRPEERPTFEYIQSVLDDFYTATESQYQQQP
Chain of FGFR3 (P22607 whole entry, looked up): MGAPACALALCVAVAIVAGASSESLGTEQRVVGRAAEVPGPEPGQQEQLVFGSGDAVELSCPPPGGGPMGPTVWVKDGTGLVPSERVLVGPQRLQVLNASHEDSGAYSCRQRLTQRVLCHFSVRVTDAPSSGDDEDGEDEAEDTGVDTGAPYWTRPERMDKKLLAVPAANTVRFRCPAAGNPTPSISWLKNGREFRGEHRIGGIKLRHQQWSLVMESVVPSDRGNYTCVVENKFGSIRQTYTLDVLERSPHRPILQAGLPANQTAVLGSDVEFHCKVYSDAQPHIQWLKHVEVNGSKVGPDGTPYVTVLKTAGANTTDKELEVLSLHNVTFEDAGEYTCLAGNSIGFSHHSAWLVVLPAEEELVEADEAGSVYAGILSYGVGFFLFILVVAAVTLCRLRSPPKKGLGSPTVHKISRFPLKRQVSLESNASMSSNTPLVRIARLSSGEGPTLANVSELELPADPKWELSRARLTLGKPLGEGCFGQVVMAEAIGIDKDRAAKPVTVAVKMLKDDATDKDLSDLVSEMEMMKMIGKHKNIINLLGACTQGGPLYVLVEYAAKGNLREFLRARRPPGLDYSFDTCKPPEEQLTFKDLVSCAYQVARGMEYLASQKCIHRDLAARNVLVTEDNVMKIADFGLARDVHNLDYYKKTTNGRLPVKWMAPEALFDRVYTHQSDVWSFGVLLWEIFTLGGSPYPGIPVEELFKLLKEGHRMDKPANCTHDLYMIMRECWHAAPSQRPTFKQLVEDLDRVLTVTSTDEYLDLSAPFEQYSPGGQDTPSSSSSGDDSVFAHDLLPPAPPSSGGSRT
Chain of Fes (P07332 whole entry, looked up): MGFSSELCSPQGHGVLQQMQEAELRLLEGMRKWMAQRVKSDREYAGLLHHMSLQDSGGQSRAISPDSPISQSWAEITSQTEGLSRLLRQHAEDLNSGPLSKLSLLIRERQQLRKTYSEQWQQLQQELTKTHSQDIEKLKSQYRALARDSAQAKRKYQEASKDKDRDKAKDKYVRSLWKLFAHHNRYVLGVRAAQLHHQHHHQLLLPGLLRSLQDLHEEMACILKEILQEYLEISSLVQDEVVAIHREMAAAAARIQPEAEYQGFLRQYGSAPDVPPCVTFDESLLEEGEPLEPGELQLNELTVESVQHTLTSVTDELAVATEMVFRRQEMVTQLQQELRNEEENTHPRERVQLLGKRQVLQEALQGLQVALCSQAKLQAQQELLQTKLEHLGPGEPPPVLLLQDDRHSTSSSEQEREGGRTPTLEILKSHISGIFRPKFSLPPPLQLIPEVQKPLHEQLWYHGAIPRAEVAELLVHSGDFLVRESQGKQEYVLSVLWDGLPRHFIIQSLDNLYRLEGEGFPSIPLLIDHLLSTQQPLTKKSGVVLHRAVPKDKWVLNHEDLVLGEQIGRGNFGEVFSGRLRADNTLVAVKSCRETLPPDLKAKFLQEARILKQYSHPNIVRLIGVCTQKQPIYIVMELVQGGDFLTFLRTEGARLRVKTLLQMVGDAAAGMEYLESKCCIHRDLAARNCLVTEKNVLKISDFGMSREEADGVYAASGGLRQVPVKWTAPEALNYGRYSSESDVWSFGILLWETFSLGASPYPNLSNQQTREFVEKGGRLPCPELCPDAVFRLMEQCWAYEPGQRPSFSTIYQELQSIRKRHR
Chain of Fyn (P06241 whole entry, looked up): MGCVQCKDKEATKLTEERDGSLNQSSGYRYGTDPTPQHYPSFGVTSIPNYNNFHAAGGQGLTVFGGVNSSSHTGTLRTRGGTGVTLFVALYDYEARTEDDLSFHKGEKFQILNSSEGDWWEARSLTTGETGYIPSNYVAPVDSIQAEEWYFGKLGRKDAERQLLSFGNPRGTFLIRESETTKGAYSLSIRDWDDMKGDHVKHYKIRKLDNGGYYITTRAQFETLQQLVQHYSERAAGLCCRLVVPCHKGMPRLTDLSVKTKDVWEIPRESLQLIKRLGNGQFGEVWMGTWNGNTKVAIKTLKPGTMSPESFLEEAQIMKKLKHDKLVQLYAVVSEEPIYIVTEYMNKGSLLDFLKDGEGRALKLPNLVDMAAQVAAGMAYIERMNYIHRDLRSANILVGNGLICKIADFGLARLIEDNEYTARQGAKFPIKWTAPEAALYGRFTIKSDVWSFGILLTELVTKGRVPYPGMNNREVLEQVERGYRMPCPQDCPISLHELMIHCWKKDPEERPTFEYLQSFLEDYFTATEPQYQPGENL

| Sequence | phosphorylation enrichment [1] | phosphorylation enrichment [2] | phosphorylation enrichment [3] | phosphorylation enrichment [4] | phosphorylation enrichment [5] | phosphorylation enrichment [6] | phosphorylation enrichment [7] | phosphorylation enrichment [8] | phosphorylation enrichment [9] | phosphorylation enrichment [10] | phosphorylation enrichment [11] | phosphorylation enrichment [12] | phosphorylation enrichment [13] | SH2 binding enrichment [14] | SH2 binding enrichment [15] | SH2 binding enrichment [16] |
| --- | --- | --- | --- | --- | --- | --- | --- | --- | --- | --- | --- | --- | --- | --- | --- | --- |
| RPAFTYATLIR [FOXP3_Y342_P339A] | 0.868 | 6.49 | 1.55 | 2.25 | 1.19 | 2.01 | 3.08 | 1.64 | 0.817 | 0.718 | 1.17 | 1.4 | 1.59 | 1.42 | 7.65 | 1.66 |
| RFLRGYEQDAF [HLA-A_Y137_R138E_YF] | 0.586 | 0.533 | 1.36 | 0.498 | 0.935 | 0.636 | 0.629 | 0.536 | 0.466 | 0.51 | 0.555 | 0.778 | 1.21 | 0.765 | 0.746 | 0.894 |
| NPPGMHPVTGP [LPP_Y346_Y346H] | 0.331 | 0.358 | 0.474 | 0.299 | 0.534 | 0.353 | 0.28 | 0.35 | 0.361 | 0.286 | 0.332 | 0.997 | 0.516 | 0.45 | 0.747 | 0.861 |
| LQRVQYDLQKA [DSP_Y1512] | 0.816 | 0.409 | 0.642 | 1.3 | 0.872 | 0.582 | 0.397 | 0.646 | 0.897 | 0.58 | 0.907 | 0.496 | 0.788 | 0.565 | 0.831 | 0.948 |
| KGEDFYCVTCH [FHL1_Y149] | 0.775 | 0.613 | 0.933 | 0.696 | 1.09 | 0.797 | 0.801 | 0.597 | 0.579 | 0.504 | 0.569 | 0.675 | 1.12 | 0.962 | 0.842 | 1.19 |
| VPANRYDLLCL [FARSB_Y72] | 0.725 | 0.487 | 0.873 | 0.58 | 0.808 | 0.469 | 0.458 | 0.514 | 0.493 | 0.486 | 0.654 | 0.773 | 0.985 | 3.03 | 0.907 | 0.831 |
| KTAFSYTSSST [SIM1_Y356_P352T] | 0.475 | 0.432 | 0.497 | 0.329 | 0.665 | 0.41 | 0.353 | 0.44 | 0.426 | 0.399 | 0.482 | 0.456 | 0.721 | 0.537 | 0.717 | 0.87 |
| MALDRYVASCK [OR2B11_Y127_I130S] | 0.569 | 0.436 | 0.667 | 0.465 | 0.649 | 0.421 | 0.435 | 0.385 | 0.397 | 0.475 | 0.593 | 0.592 | 0.846 | 0.579 | 0.698 | 0.799 |
| HFPDVYAREQL [ALX3_Y181_YF] | 0.514 | 0.91 | 0.616 | 0.619 | 0.713 | 0.588 | 0.722 | 0.408 | 0.55 | 0.561 | 0.703 | 0.667 | 1.04 | 0.56 | 0.682 | 0.832 |
| SDRNLYSKNLV [CFAP58_Y501] | 0.363 | 0.435 | 0.491 | 0.268 | 0.626 | 0.411 | 0.555 | 0.748 | 0.325 | 1.03 | 0.38 | 0.467 | 0.516 | 0.423 | 0.811 | 0.823 |
| WFKKFYDANCD [MAPRE2_Y158_Y162C] | 0.707 | 0.397 | 0.948 | 0.77 | 1 | 0.46 | 0.475 | 0.35 | 0.472 | 0.453 | 0.426 | 0.749 | 1.21 | 0.513 | 0.78 | 0.848 |
| KLFYIYTPGTT [SLC27A4_Y245_S247P] | 0.899 | 0.58 | 1.43 | 0.666 | 1.25 | 0.404 | 0.527 | 1.66 | 0.753 | 0.594 | 0.584 | 0.784 | 1.17 | 0.471 | 1.15 | 0.798 |
| KILGTYFETGS [PAX2_Y72_R71T_YF] | 0.793 | 0.585 | 0.717 | 0.491 | 0.833 | 0.577 | 0.485 | 0.5 | 0.814 | 0.467 | 0.47 | 0.668 | 0.867 | 0.638 | 0.982 | 0.848 |
| ISKILYHIIKG [CDH17_Y489_S484I] | 0.601 | 0.551 | 0.783 | 0.679 | 0.779 | 0.449 | 0.508 | 1.11 | 0.651 | 0.379 | 0.535 | 0.601 | 0.823 | 3.02 | 2 | 1.75 |
| KFANSYIMEPL [TCTE3_Y87_R88I] | 0.629 | 0.712 | 0.476 | 0.39 | 0.853 | 0.529 | 0.432 | 0.37 | 0.524 | 0.498 | 0.531 | 0.436 | 0.606 | 0.583 | 0.715 | 0.91 |
| ATPSQYMTFLH [DYNC2H1_Y2872_R2871Q] | 0.651 | 2.62 | 0.99 | 0.593 | 0.903 | 3.39 | 2.29 | 1.06 | 0.562 | 0.541 | 0.473 | 0.885 | 0.791 | 0.75 | 2.86 | 0.799 |
| KNEIFYQCPDQ [FBXO3_Y223_V221I] | 1.02 | 0.744 | 1.07 | 0.688 | 2.23 | 0.748 | 0.998 | 2.55 | 0.928 | 4.5 | 1.07 | 6.62 | 1.36 | 0.746 | 0.676 | 0.774 |
| DIMDLYNQPEL [IL36A_Y96_P101L] | 0.943 | 0.99 | 1.11 | 0.559 | 1.54 | 0.932 | 1.29 | 0.511 | 0.567 | 0.589 | 0.613 | 0.868 | 1.28 | 0.556 | 0.768 | 0.764 |
| FARNCYVAGQY [G6PD_Y107_S106C] | 0.641 | 0.469 | 0.889 | 0.55 | 1.08 | 0.437 | 0.524 | 0.49 | 0.443 | 0.511 | 0.526 | 0.83 | 1.07 | 0.469 | 0.707 | 0.709 |
| IEEGTYGVAFR [CDK11B_Y449_V452A_YF] | 0.915 | 5.45 | 0.859 | 0.888 | 1.32 | 7.47 | 6.06 | 1.6 | 0.465 | 4.45 | 2.24 | 0.982 | 1.11 | 0.374 | 0.51 | 0.612 |
| VHVEVYDPPSP | 0.826 | 0.719 | 1.27 | 0.749 | 1.65 | 0.794 | 0.833 | 0.775 | 0.672 | 0.758 | 0.572 | 0.949 | 1.3 | 0.708 | 0.548 | 0.736 |
| QQIYTYDSGIH [JUP_Y22_T19I] | 1.84 | 6.68 | 0.788 | 3.57 | 1.02 | 10.3 | 4.94 | 11.1 | 1.86 | 4.16 | 1.98 | 0.91 | 0.923 | 0.666 | 0.834 | 0.922 |
| FKTPIYPFLLP [PLD2_Y578_T577I_YF] | 0.782 | 0.559 | 0.91 | 0.564 | 1.11 | 0.456 | 0.523 | 1.57 | 1.06 | 0.497 | 0.563 | 0.747 | 0.883 | 0.825 | 0.892 | 1.14 |
| EAEALYQTTFQ [KRT73_Y325_K328T] | 0.972 | 4.32 | 1.13 | 1.27 | 1.98 | 3.38 | 4.59 | 4.9 | 0.644 | 11.9 | 1.53 | 2.1 | 1.27 | 0.483 | 0.739 | 0.804 |
| DEEDTYTMPST [PTK2_Y407] | 0.776 | 2.94 | 1.25 | 0.528 | 3.8 | 3.77 | 1.83 | 0.657 | 0.568 | 0.691 | 0.627 | 1.12 | 1.29 | 0.469 | 0.563 | 0.869 |
| DRLAVYIDRVP [LMNA_Y45_R50P] | 0.731 | 0.329 | 0.911 | 0.682 | 1.09 | 0.429 | 0.468 | 0.331 | 0.451 | 0.437 | 0.719 | 0.654 | 1.09 | 0.471 | 0.912 | 0.756 |
| TLSGIYQYIIA [FOXL2_Y81] | 8.01 | 4.81 | 1.09 | 12.9 | 1.54 | 6.05 | 7.53 | 9.32 | 11.1 | 13.9 | 12.2 | 4.23 | 5.1 | 1.49 | 1.87 | 1.22 |
| NPQKSYLIRLY [WAS_Y83_F84L] | 0.65 | 0.374 | 0.74 | 0.603 | 0.827 | 0.408 | 0.47 | 0.388 | 0.471 | 0.395 | 0.49 | 0.522 | 0.989 | 0.874 | 1.15 | 1.22 |
| IPQEEYKATGL | 0.677 | 0.535 | 0.93 | 0.706 | 0.84 | 0.497 | 0.631 | 0.492 | 0.527 | 0.531 | 0.635 | 0.776 | 1.18 | 0.564 | 0.777 | 0.763 |
